# Article PMC6269467 (Nature Communications, 2018)
# Residue numbers refer to the chain shown, from its start. Numbers in names are those of the source.
# B1: αE-catenin actin-binding domain, wild type (αEcat-ABD-WT; residues 652-906) (domain or fragment)
# chain: SRTSVQTEDDQLIAGQSARAIMAQLPQEQKAKIAEQVASFQEEKSKLDAEVSKWDDSGNDIIVLAKQMCMIMMEMTDFTRGKGPLKNTSDVISAAKKIAEAGSRMDKLGRTIADHCPDSACKQDLLAYLQRIALYCHQLNICSKVKAEVQNLGGELVVSGVDSAMSLIQAAKNLMNAVVQTVKASYVASTKYQKSQGMASLNLPAVSWKMKAPEKKPLVKREKQDETQTKIKRASQKKHVNPVQALSEFKAMDSI
# notes: source: E. coli BL21-CodonPlus, purified (glutathione-sepharose, thrombin cleavage, Superdex 75); not shown: GST, N-terminal, cleaved
# B2: αEcat-ABD I792A (domain or fragment)
# chain: B1 chain with I141A
# notes: as for B1
# B3: αEcat-ABD 3A (L785A, I792A and V796A together) (domain or fragment)
# chain: B1 chain with L134A, I141A, V145A
# notes: as for B1
# B4: αEcat-ABD V796A (domain or fragment)
# chain: B1 chain with V145A
# notes: as for B1
# B5: αEcat-ABD L785A (domain or fragment)
# chain: B1 chain with L134A
# notes: as for B1
# B6: αEcat-ABD V714A (domain or fragment)
# chain: B1 chain with V63A
# notes: as for B1
# B7: αN-catenin actin-binding domain with the helix-1 mutation (αNcat-ABD-H1) (domain or fragment, mouse, UniProt Q61301-2 651-905, looked up)
# chain: SRTSVQTEDDQLIAGQSAGSGSAQLPQEEKAKIAEQVEIFHQEKSKLDAEVAKWDDSGNDIIVLAKQMCMIMMEMTDFTRGKGPLKNTSDVINAAKKIAEAGSRMDKLARAVADQCPDSACKQDLLAYLQRIALYCHQLNICSKVKAEVQNLGGELIVSGLDSATSLIQAAKNLMNAVVLTVKASYVASTKYQKVYGTAAVNSPVVSWKMKAPEKKPLVKREKPEEFQTRVRRGSQKKHISPVQALSEFKAMDSF
# notes: The substitution is printed in αN-catenin's own numbers; PDB 4K1O is the wild-type parent; 6DUW (form A) and 6DUY (form B) are this construct; also called αN-catenin ABD-H1; αN-H1; source: E. coli BL21-CodonPlus, purified (glutathione-sepharose, thrombin cleavage, Superdex 75); 15N-labelled in M9 minimal media for NMR; not shown: GST, N-terminal, cleaved
# B8: αE-catenin actin-binding domain with the helix-1 mutation (αEcat-ABD-H1; RAIM670-673GSGS) (domain or fragment)
# chain: B1 chain with R19G, A20S, I21G, M22S
# notes: as for B1
# Biological target: T1, filamentous actin (F-actin) from rabbit skeletal muscle (rabbit, UniProt P68135 1-377)
# Assay: BLI; F-actin immobilised on Streptavidin (SA) biosensors through LAbio peptide; αcat-ABD in solution at various concentrations; 26 °C, Octet384; 2 mM Tris-HCl pH 8.0, 0.2 mM ATP, 0.5 mM DTT, 0.1 mM CaCl2, 50 mM KCl, 2 mM MgCl2, 0.1% BSA, 0.02% Tween-20; 2:1 heterogeneous ligand model
# Conditions: both partners purified
Binder,KD1 (2:1 heterogeneous ligand model),KD2 (2:1 heterogeneous ligand model),koff1 (2:1 heterogeneous ligand model),koff2 (2:1 heterogeneous ligand model),kon1 (2:1 heterogeneous ligand model),kon2 (2:1 heterogeneous ligand model)
B1,2 µM,0.3 µM,0.465 s⁻¹,0.00964 s⁻¹,234000 M⁻¹ s⁻¹,31900 M⁻¹ s⁻¹
B2,4 µM,0.6 µM,0.945 s⁻¹,0.00881 s⁻¹,234000 M⁻¹ s⁻¹,14500 M⁻¹ s⁻¹
B3,38.4 µM,6.1 µM,0.799 s⁻¹,0.00849 s⁻¹,20800 M⁻¹ s⁻¹,1400 M⁻¹ s⁻¹
B4,3.7 µM,1.8 µM,0.773 s⁻¹,0.0125 s⁻¹,211000 M⁻¹ s⁻¹,6910 M⁻¹ s⁻¹
B5,27.8 µM,4.8 µM,0.69 s⁻¹,0.0107 s⁻¹,24900 M⁻¹ s⁻¹,2210 M⁻¹ s⁻¹
B6,2.6 µM,0.7 µM,0.568 s⁻¹,0.0135 s⁻¹,221000 M⁻¹ s⁻¹,20100 M⁻¹ s⁻¹

# Biological target: T1, filamentous actin (F-actin) from rabbit …
# Assay: co-sedimentation; actin cosedimentation at high RCF: 5 μM ABD and 5 μM actin in 50 μL Buffer-F, 1 h at RT, Airfuge ≥100,000×g 20 min at RT; supernatant and pellet by SDS-PAGE with coomassie, band intensity by ImageJ
# Conditions: both partners purified
row,Binder,reduction in the amount of ABD cosedimenting with F-actin compared to αEcat-ABD-WT
1,B2,36%
2,B3,78%
3,B4,47%
4,B5,75%

# Biological target: the molecule itself
# Assay: crystal structure; αNcat-ABD-H1 crystal forms A (P6522, 2.2 Å) and B (P212121, 2.8 Å), grown at 277 K by vapor diffusion
# Conditions: not given
row,Binder,binding result
1,B7,binds

# Biological target: T1, filamentous actin (F-actin) from rabbit …
# Assay: BLI; as a2 but Super-Streptavidin (SSA) biosensors with increased streptavidin density, used for αEcat-ABD-H1; 1:1 binding model
# Conditions: both partners purified
Binder,Kd,koff,kon
B8,580 nM,0.264 s⁻¹,455000 M⁻¹ s⁻¹
